In patent US20260125454A1 (SHANGHAI JUNSHI BIOSCIENCES, published 2026):

T1: Biotin-huCGRPaSA (human, not fully specified; biotin (position not given))
T1 construct: exact construct ('aSA') not explained; also called Biotin CGRPaSA; full-length (1-37) CGRP
T1 peptide: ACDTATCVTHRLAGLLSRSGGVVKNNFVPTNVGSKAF


Columns and labels:
[1] = molecular target: CGRP antigen; experiment: cell-based or functional assay
[2] = molecular target: T1, Biotin-huCGRPaSA; experiment: ELISA, supernatant; relative to chimeric C245
Outline: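 Antibodies, including reference chimeric C245, titrated 2.5-fold from 1000 ng/mL and incubated 60 min at 37°C on wells coated with 1.0 μg/mL biotin-CGRPaSA and blocked with 2% BSA. Bound IgG detected with HRP anti-human Fc antibody and TMB, acid-stopped, absorbance 450/620 nm.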

Row | Binder | IC50 [1] | relative activity (%) vs Ref(TEVA) [1] | Relative binding activity, % [2]
1 | hu37 (antibody, V domains shown, 1F5 HC-1/3E5 LC-1) VH: QVQLVQSGAEVKKPGASVKVSCKASGYTFIDFNMHWVRQAPGQRLEWMGYIYPYNGDVVYNQNFTNRVTLTVDTSSSTAYMELSSLRSEDTAVYYCAREGLGGYWGQGTLVTVSS VL: DIVLTQSPDSLAVSLGERATINCKASQNIDYDGYTYLNWYQQKPGQPPKVLIYSIFNLESGVPDRFSGSGSGTDFTLTISSLQAEDVAVYYCQQSNEVPYTFGQGTKLEIK | 0.0784 µg/mL | 46% | 142%
2 | hu50 (antibody, V domains shown, 1F5 HC-2/3E5 LC-1) VH: QVQLVQSGAEVKKPGASVKVSCKASGYTFTDFNMHWVRQAPGQRLEWMGYIYPYNGDVVYNQNFTNRVTLTVDTSSSTAYMELSSLRSEDTAVYYCAREGLGGYWGQGTLVTVSS VL: DIVLTQSPDSLAVSLGERATINCKASQNIDYDGYTYLNWYQQKPGQPPKVLIYSIFNLESGVPDRFSGSGSGTDFTLTISSLQAEDVAVYYCQQSNEVPYTFGQGTKLEIK | 0.0668 µg/mL | 46% | 132%
3 | hu63 (antibody, V domains shown, 1F5 HC-3/3E5 LC-1) VH: QVQLVQSGAEVKKPGASVKVSCKASGYTFTDFNMHWVRQAPGQGLEWMGYIYPYNGDVVYNQNFTNRVTLTVDTSSSTAYMELRSLRSDDTAVYYCAREGLGGYWGQGTLVTVSS VL: DIVLTQSPDSLAVSLGERATINCKASQNIDYDGYTYLNWYQQKPGQPPKVLIYSIFNLESGVPDRFSGSGSGTDFTLTISSLQAEDVAVYYCQQSNEVPYTFGQGTKLEIK | 0.05 µg/mL | 62% | 122%
4 | hu64 (antibody, V domains shown, 1F5 HC-3/3H10 LC2-1) VH: QVQLVQSGAEVKKPGASVKVSCKASGYTFTDFNMHWVRQAPGQGLEWMGYIYPYNGDVVYNQNFTNRVTLTVDTSSSTAYMELRSLRSDDTAVYYCAREGLGGYWGQGTLVTVSS VL: DIVLTQSPDSLAVSLGERATINCKASQNIDYGGYSYMNWYQQKPGQPPKVLIYSVFNLESGVPDRFSGSGSGTDFTLTISSLQAEDVAVYYCQQSNEAPYTFGQGTKLEIK | 0.0699 µg/mL | 44% | 116%
5 | hu89 (antibody, V domains shown, 1F5 HC-5/3E5 LC-1) VH: QVQLVQSGAEVKKPGASVKVSCKASGYTFIDFNMHWVRQAPGQRLEWMGYIYPYNADVVYNQDFTNRVTLTVDTSSSTAYMELSSLRSEDTAVYYCAREGLGGYWGQGTLVTVSS VL: DIVLTQSPDSLAVSLGERATINCKASQNIDYDGYTYLNWYQQKPGQPPKVLIYSIFNLESGVPDRFSGSGSGTDFTLTISSLQAEDVAVYYCQQSNEVPYTFGQGTKLEIK | 0.0979 µg/mL | 48% | 112%
6 | hu190 (antibody, V domains shown, 3E5 HC-4/1F5 LC1-4) VH: QVQLVQSGAEVKKPGASVKVSCKTSGYTFTDYNMHWVRQAPGQRLEWMGYISPYNAGTAYNQKFKFRVTLTVDTSSSTAYMELSSLRSEDTAVYYCAREGLGGYWGQGTLVTVSS VL: DIVLTQSPDSLAVSLGERATINCKASQNIDFDGYAYMNWYQHKPGQPPKVLIYSVFNLESGVPDRFSGSGSGTDFTLTISSLQAEDVAVYYCQQSHEVPYTFGQGTKLEIK |  |  | 34%
7 | hu194 (antibody, V domains shown, 3E5 HC-4/3H10 LC2-1) VH: QVQLVQSGAEVKKPGASVKVSCKTSGYTFTDYNMHWVRQAPGQRLEWMGYISPYNAGTAYNQKFKFRVTLTVDTSSSTAYMELSSLRSEDTAVYYCAREGLGGYWGQGTLVTVSS VL: DIVLTQSPDSLAVSLGERATINCKASQNIDYGGYSYMNWYQQKPGQPPKVLIYSVFNLESGVPDRFSGSGSGTDFTLTISSLQAEDVAVYYCQQSNEAPYTFGQGTKLEIK |  |  | 98%
8 | hu195 (antibody, V domains shown, 3E5 HC-4/3H10 LC2-2) VH: QVQLVQSGAEVKKPGASVKVSCKTSGYTFTDYNMHWVRQAPGQRLEWMGYISPYNAGTAYNQKFKFRVTLTVDTSSSTAYMELSSLRSEDTAVYYCAREGLGGYWGQGTLVTVSS VL: DIQLTQSPSSLSASVGDRVTITCKASQNIDYGGYSYMNWYQQKPGKAPKVLIYSVFNLESGVPSRFSGSGSGTDFTLTISSLQPEDFATYYCQQSNEAPYTFGQGTKLEIK |  |  | 23%
